In paper doi:10.1101/2023.02.23.529489:
pEC50: −log10 of the molar value.

Columns and labels:
Assay in all cases: flow cytometry on cells
[1] = molecular target: CD45RABC ECD-GFP (extracellular domain and transmembrane region of CD45RABC, phosphatase domains replaced by GFP) (human)
[2] = molecular target: CD45RO ECD-GFP (extracellular domain and transmembrane region of CD45RO, phosphatase domains replaced by GFP) (human)
[3] = molecular target: full-length human CD45RO (human) (UniProt P08575)
[4] = molecular target: full-length human CD45RABC (human) (UniProt P08575)

sec49K-His (recombinant N-terminal ectodomain of HAdV-D64 E3/49K, residues 20-353, from insect cells) (domain or fragment)
pEC50 [1]: 9.26 | pEC50 [2]: 9.27 | pEC50 [3]: 8.87 | pEC50 [4]: 8.90
